Source: paper PMC8724787

Assays:
[1] = target: DENV3 strain H87 envelope (E) protein on virions (Dengue virus 3 (strain H87)); assay: ELISA
[2] = target: DENV2 strain 16681 envelope (E) protein on virions (Dengue virus 2 (strain 16681)); assay: ELISA
[3] = target: DENV4 strain 1-0093 envelope (E) protein on virions (Dengue virus 4 (strain 1-0093)); assay: ELISA
[4] = target: DENV4_Burma/63632/1976 sE protein (aa 1-395) (Dengue virus 4 (strain Burma/63632/1976)); assay: crystal structure
[5] = target: K^L66A C10 mAb mutant (IgG1) (human); assay: BLI
[6] = target: DENV1 strain Hawaii envelope (E) protein on virions (Dengue virus 1 (strain Hawaii)); assay: ELISA; apparent
[7] = target: DENV2 A259C (sE)2, disulfide engineered mutant dimer; assay: BLI (steady state binding)
[8] = target: DENV3 A257C (sE)2, disulfide engineered mutant dimer; assay: BLI (steady state binding)
[9] = target: ZIKV-H/PF/2013 sE protein (aa 1-404); assay: BLI (steady state binding)
[10] = target: DENV4 A259C (sE)2, disulfide engineered mutant dimer; assay: BLI (steady state binding)
[11] = target: DENV1-FGA/89 sE protein (aa 1-395) (Dengue virus 1 (strain FGA/89)); assay: crystal structure
[12] = target: DENV1-FGA/89 sE protein (aa 1-395) (Dengue virus 1 (strain FGA/89)); assay: crystal structure; unbound sE
[13] = target: ZIKV-H/PF/2013 sE protein (aa 1-404) (Zika virus (strain H/PF/2013)); assay: crystal structure
[14] = target: ZIKV-H/PF/2013 sE protein (aa 1-404) (Zika virus (strain H/PF/2013)); assay: SEC-MALS; Superdex 200 10/300 GL; Tris 50 mM pH 8.0, NaCl 500 mM; about 150 ug protein; proteins alone and in complex
[15] = target: DENV3-paH881 sE protein (aa 1-393) (Dengue virus 3 (strain paH881)); assay: crystal structure
[16] = target: DENV3-paH881 sE protein (aa 1-393) (Dengue virus 3 (strain paH881)); assay: crystal structure; unbound sE

C10 monovalent antigen binding fragment (Fab)
fold difference in EC50 for virion binding, bivalent versus monovalent [1]: 2 logs | fold difference in EC50 for virion binding, bivalent versus monovalent [2]: 10 fold | fold difference in EC50 for virion binding, bivalent versus monovalent [3]: 10 fold

DENV4_Burma/63632/1976 sE protein (aa 1-395) (domain or fragment)
stoichiometry N [4]: 2

DENV3 A257C (sE)2, disulfide engineered mutant dimer (domain or fragment)
drop in affinity against wild-type C10 [5]: > 1 log

C10 bivalent F(ab')2
Kd [6]: 3.84 nM

C10 intact bivalent IgG1 (human monoclonal antibody EDE1 C10) L:K66A
Kd [7]: 259 nM | Kd [8]: 223 nM | Kd [9]: 40.3 nM | Kd [10]: 1370 nM

DENV4 A259C (sE)2, disulfide engineered mutant dimer (domain or fragment)
drop in affinity against wild-type C10 [5]: > 1 log

DENV1-FGA/89 sE protein (aa 1-395) (domain or fragment)
stoichiometry N [11]: 2 | stoichiometry N [12]: 2

ZIKV-H/PF/2013 sE protein (aa 1-404) (domain or fragment)
stoichiometry N [13]: 2 | stoichiometry N [14]: 2

DENV3-paH881 sE protein (aa 1-393) (domain or fragment)
stoichiometry N [15]: 2 | stoichiometry N [16]: 2

DENV2 A259C (sE)2, disulfide engineered mutant dimer (domain or fragment)
drop in affinity against wild-type C10 [5]: > 1 log
